A short description of this series: yeast display, Sf9 membrane polyspecificity reagent, FACS + sequencing; frameworks hold sequencing errors. The procedure, abridged:
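After 36–48 hours of galactose induction, yeast (Saccharomyces cerevisiae BJ5465) displaying a synthetic nanobody library were stained at 4 °C for 1 hour with 10% biotinylated, detergent-solubilized Sf9 membrane reagent. Streptavidin microbeads enriched the stained cells before FACS sorting into low and high (top ~1%) gates on anti-HA and streptavidin fluorescence. Each clone's polyreactivity label reflects its gate of origin.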
With “QVHLVESGGGLVQAGGSLRLSCAATGLTFHKYAMGWYRQSPGKERELVAAISSSGGSTYYADSVKGRFTISRDNAKNTVYLQMNSLKPEDTAVYYCATRLPYYTHAGYNYWGQGTQVTVSS”, the “polyreactivity (PSR sort gate)” value is listed as “high polyreactivity”.

Turning to “QVHLVESGGGLVQAGGSLRLSCAPSGLTFPYNAMGWYRQAPGKESELVAAISRGGGTNYADSVKGRFTISRDNAKNTVYLQMNSLKPEDTAVYYCAAEYATWWGGYDYSGQGTQVTVSS”, the “polyreactivity (PSR sort gate)” value is given as “low polyreactivity”.

As to “QVHLVESGGGLVQAGGSLRLSCAPSGRTFFINAMGWYRQAPGKERELVAAIRVGAGSTYYADSVKGRFTISRDNAKNTVYLQMNSLKPEDTAVYYCAAKRVGSREYYWGQGTQVTVSS”, the “polyreactivity (PSR sort gate)” value is on record as “high polyreactivity”.

As for “QVHLVESGGGLVQAGGSLRLSCASTGRISTYYTMVWYRQAPGKERELVAAISWSGTSTYYADSVKGRFTISRDNAKNTVYLQMNSLKPEDTAVYYCNAYFRPRYGYWGQGTQVTVSS”, the “polyreactivity (PSR sort gate)” value is recorded as “high polyreactivity”.

On to “QVHLVESGGGLVQAGGSLRLSCDASGSIFSVNVMGWYRQQPGKERELVAAITSGGSTHYADSVKGRFTISRDNAKNTVYLQMNSLKPEDTAVYDCAARVWYYDYWGQGTQVTVSS”, for which the “polyreactivity (PSR sort gate)” value was “high polyreactivity”.

On to “QVHLVESGGGLVQAGGSLRLSCPASGIIFVPNAMGWYRQAPGKEREFVAAISRSGTSTYYADSVKGRFTISRDNAKNTVYLQMNSLKPEDTAVYYCAKSAYRSYSAFGYWGQGTQVTVSS”, for which the “polyreactivity (PSR sort gate)” value is “high polyreactivity”.

“QVHLVESGGGLVQAGGSLRLSCPASGRIFYYYTMGCYRQAPGKERELVAAITSGGSTYYADSVKGRFTISRDNAKNTVYLQMYSLKQEDTAVYYCIAEFDEKYDYWGQGTQVTVSS”: the “polyreactivity (PSR sort gate)” value was “low polyreactivity”.

Turning to “QVHLVESGGGLVQAGGSLRLSFAASGRTFSTNAMGWYRQAPGKERELVAAISSTGGRTYYADSVKGRFTISRDNAKNTVYLQMNSLKPEDTAVYYCNTKLKGKGEGFDYWGQGTQVTVSS”, the “polyreactivity (PSR sort gate)” value is on record as “high polyreactivity”.

Consider “QVHLVESGGGLVQAGGSLRLSSAASGITFGWYAMGWYRQAPGKERELVAAIDRGGSTYYADSVKGRFTISRDNAKITVYLQMNSLKPEDTAVYYCAVELRLRYGYDYWGQGTEVTVSS”, for which the “polyreactivity (PSR sort gate)” value is given as “high polyreactivity”.

“QVHLVESGGGLVQAGGSLRLSSAPSGLTLETNAMGWSRQAPGKERELVAGITYSGGTTYYADSVKGRFTISRDNAKNTVYLQMNSLKPEDTAVYYCAAHTSTSGHNFWGQGTQVTVSS”: the “polyreactivity (PSR sort gate)” value is listed as “low polyreactivity”.

Turning to “QVHLVESGGGLVQAGGSLRLSSDASGSTFHPYAMGLYRQAPGKERELVAAISWTGGRTYYADSVKGRFTISRDYAKNTVYLQMNRLKREDTAVYYCAARTYGKVGYWGQGTQVTVSS”, the “polyreactivity (PSR sort gate)” value is listed as “high polyreactivity”.

As for “QVHLVESGGGLVQAGGSLRLSSSASGIIFGRNTMGWYRQAPGKEREMVAAITSSGITYYADSVKGRFTISRDNAKNTVYFQMNSLKPEDTAVYYCYSDWTYADPNEYGYWGQGTQVTVSS”, the “polyreactivity (PSR sort gate)” value was “low polyreactivity”.

Take “QVHLVESGGGLVQAGGSLRLTCAASGGIFHINAMGWYRQAPGKERELVAAITRTTITYADSVKGRFTISRDNAKYTVYLQMNRLKLEDSAVYYCAARDKRTPSGVEITGYDYWGQGSQVTVSS”: the “polyreactivity (PSR sort gate)” value is “low polyreactivity”.

Consider “QVHLVESGGGLVQAGGSLRLTCAASGSIFAYYTMGWYRQEPGKERELVAAISRTGTSTFYADSVKGRFTISRDNAKNTVDLQMNSLKPEDTSVYYCIAVAPGKYNHWGQGTQVTVSS”, for which the “polyreactivity (PSR sort gate)” value is recorded as “high polyreactivity”.

For “QVHLVESGGGLVQAGGSLRLTCAASGSIFPYNAMGWYRQSPGEFVAAISYSSGSTYYADSVQGRFTISRDNAKYTVYLQMNCVIPDVTAVYYCAAGSWYPPSYVWLGRYDYWGQGTQVTVSS”, the “polyreactivity (PSR sort gate)” value is given as “low polyreactivity”.

As for “QVHLVESGGGLVQAGGSLRLTSAASGRIFGRNAMGWYRQAPGKEREFVAAISRSGASRYYADSVKGRFTISRDNAKNTVYLQMNRLKPEDTAVYYCARTTRQSSAYTYSDEYDYWGQGTQVTVSS”, the “polyreactivity (PSR sort gate)” value is reported as “high polyreactivity”.

“QVHLVESGGGLVQAGRSLRLICAASGSTFDYYAMGWYRQAPGKERELVAGIDSAGSTNYADSVKGRFTISRDNAKNTVYLQMNSLKTGRYRGLYCNVGKTITTYAFPTFDYWRQGTQVTVSS”: the “polyreactivity (PSR sort gate)” value is “low polyreactivity”.

Regarding “QVHLVESGGGLVQAGRSLRLSCAASGITFVKYAMGCYIQAPGKEMELVATISNSGGSTYYSDSVKGRFTISRDNAKNSVYLQMNSLKPEETAVYYCNALYLVYCDDSSPSLVSEYGYWGQGTQVTVSS”, the “polyreactivity (PSR sort gate)” value is on record as “low polyreactivity”.

In the case of “QVHLVESGGGLVQAGVSLRLSCAASGFTFYRNAMGWYRQAPGKERELVAAISSRGGSTYYADSVKGRFTISRYNANNTVYFQMNSLKPEDTAVYYCAAYGNYNEYDYWGPGTQVTVSS”, the “polyreactivity (PSR sort gate)” value is on record as “high polyreactivity”.

As for “QVHLVESGGGLVQAGVSLRLSCAASGSIFRINGMGWYRQAPGKERELVAAITRSGGSTFYADSVKGRFTISRDTAKNTVYLQMNSLKPEETAVYYCAAVWYYSTVPARYEYWGQGTQVTVSS”, the “polyreactivity (PSR sort gate)” value is recorded as “low polyreactivity”.

In the case of “QVHLVESGGGLVQEGGSLLLSCAASGSIFQIYTMGRYRQAPGKERELVAAISSSVSTNYADSVKGRFTISRDNAKNTVYLQMHTLKPEDTAVYYCNRDDYNTADRDASGYWGQGTQVTVSS”, the “polyreactivity (PSR sort gate)” value is given as “low polyreactivity”.

“QVHLVESGGGLVQPGGSLRLSCAASGNTFQSYARGWYRQAPRKEREFVAAIRQSGGSTYYAESLKGRFTISRDNSKYSVYLLMKRLKPEDTAVYYCGTGRSRVYNGRGDYWGQGTQVNVSS”: the “polyreactivity (PSR sort gate)” value is recorded as “high polyreactivity”.

Turning to “QVHLVESGGRLVLAGGSLRLSCAASRRIFDLNAMRGYIQAPGKERELFAAITNTGSTNYADSVKGRFTISRDNAKNTVYLQMNSLKPEDTAVYYCARTYWLRYFGYRDDEYDYWGQGTQVTVSS”, the “polyreactivity (PSR sort gate)” value was “low polyreactivity”.

With “QVHLVESGGRLVQAGGSLRLRCAASGRTFIANVMGLYRQAPRKETELVAAISTRGGSTYYADSVKGRFTISRDYAKYTVYLHMNRLKPEDTAVDYCAAYYPAQRGFNSWGQGTQVTVSS”, the “polyreactivity (PSR sort gate)” value was “high polyreactivity”.

Take “QVHLVESGGVLVQAGGSLRLSCAASGRIFSYYAMGWYRQAPGKEREMVAAISWTVGSTYYADSVKGRFTISRDNAINTVYLQMNSLYPEDTAVFYCAAAYGWSWYRYDYWGQGTQVTVSS”: the “polyreactivity (PSR sort gate)” value is on record as “high polyreactivity”.

Turning to “QVHLVESGVGLVKAGGTLRLSCAASGGIFIRNAMGWYRQAPGKERELVATISNAGSTYADAVKGRFTISRDNAKNPVHLQMHSLKPEDTAVYYCNRDDWTYPVYQGLQEYDYWGQGTQVSVSS”, the “polyreactivity (PSR sort gate)” value is given as “low polyreactivity”.

With “QVHLVESGVGLVQAGGSLRLSCAASGYTFPAYAMGRYRQAPVKERELVAGISSGGRTYYAYSVKGRFTISRDNAKNTVYLQMNSLKPEDTAVYYCAAFRFYWQSPERYYYWGQGTQVSVSS”, the “polyreactivity (PSR sort gate)” value is reported as “high polyreactivity”.

With “QVHLVESGVGLVQAGGSRRLSCAASGVIFTGYAMGRYRHAPGKDRELVAAISSSGTSTYYADSVKGRFTISRDNAKYTVYLQINSLKPEDTAVYYCARVSKRTWSGYYFLGQGTQVTVSS”, the “polyreactivity (PSR sort gate)” value is listed as “high polyreactivity”.

Take “QVHLVESRGVLVQAGGSLRLSCAASGRTFPSYTMGWYRQAPGKERELVAAITWTGGSTYYADSVKGRFTISRDNAKNTVYFQMNSLKPDDTAVYYCADYDYWGQGTQVTVSS”: the “polyreactivity (PSR sort gate)” value is “low polyreactivity”.

As for “QVHLVESVGGLVQAGGSLRLSCAASGFILAVYVLGWYRQAPGKDRELVAAISWSGGSTYYADSVKGRFTISRDNAKNTVYLQMNSLKPEATAVYYCNTVAKSPVKYDYWGQGTQVTVSS”, the “polyreactivity (PSR sort gate)” value is reported as “high polyreactivity”.

On to “QVHLVESVGGLVQAGGSLRLSCAASGFIYKPYAMGWYRQAPGKERELVAAITVNGCTTYYADSVKARFTISRDNAKNTVYLQMNSLKPEDTAVYYCNRGSPGGPSWYHYDYWGQGTQVTVSS”, for which the “polyreactivity (PSR sort gate)” value is given as “high polyreactivity”.

Regarding “QVHLVESVGGLVQAGGSLRLSCAGSGRIFYLNSMGWYRQATGKDRELVAGITNSTTGTYYADSVKGRFKISRDNAKNTVYLQMNSLKAEETAVYYCNTDVAYEEPVETYDYWGQGTQVTVSS”, the “polyreactivity (PSR sort gate)” value is recorded as “low polyreactivity”.

As to “QVHLVETGGGLDQAGGSLRLSCAASGYTFKTNDMRAYSPPPGKDREFVAAISAIGASTYYADSVKGRFTISRDTAKNTVYLQMKSLKPEDTAVYYCATGPYPLWYVWTDGYDHWGQGTQVPVSS”, the “polyreactivity (PSR sort gate)” value is reported as “low polyreactivity”.

“QVHLVGSGGCLVQAGGSLRLSCAASGITFYYYVMGWYRQSPGKERELVAAINSGGSTNYADSVKGRFTISRDNAKNTVYLQMNSLKPEDTAVYYCNAYTVRSYRFDYWGQGTQVTVSS”: the “polyreactivity (PSR sort gate)” value is given as “high polyreactivity”.

“QVHLVVSGGGLVQAGGSLRLMCAASGSTFKYYVMGWYRQAPGKERELVAAISGSGGSKYYADSVKGRFTISRDNAKNTVYLQMNSLIPEDTAVYYCAAGRLRGPGYYFTFDYWGQGTQVTVSS”: the “polyreactivity (PSR sort gate)” value is given as “high polyreactivity”.

Consider “QVHPVESGGGLVQAGGSIRLSCAASGRIFRRYTMGWYRQAPGHERELVAAITRGGGSTSYADSVKGRFTISRDNAKNTVYLQMNSLKPEDTAVYYCAAQARTSTIRGYDYWGQGTQVTVSS”, for which the “polyreactivity (PSR sort gate)” value is given as “high polyreactivity”.

With “QVHRVVSGGGLVQAGGSLRLSCSAYGFTFYLYAMGWYRQAPGKERELVAAISSGTSTYYADSVKGRFTISRDNAKNTVYLQMNSLKPEDTAVYYCDAATNWGGEYWGHGTQVTVSS”, the “polyreactivity (PSR sort gate)” value is “high polyreactivity”.

As for “QVKIVESVGGLVQSGGSLRLSCAASGRTFHRNARGLYREAPGTEREWVATITTNGGATDYADTVTGRFTSSRDNAKNTFYFHMHSQIPEDTAVYYCSAPFNPRVRPLGSVRMYYWGQGTQVTVSS”, the “polyreactivity (PSR sort gate)” value is listed as “low polyreactivity”.

Regarding “QVKLEESGGGLVQAGGSLRLTCAASGSTFKYNAMGWYRQAPGKERELVAAISSGGSTNYADSVKGRFTISRDNAMNTVYLQMISLKPEDTAVYYCNADYTYVTAWYYYWGQGTQVTVSS”, the “polyreactivity (PSR sort gate)” value is recorded as “high polyreactivity”.

For the sequence “QVKLLESGGGLLQAGGSLRLSCAASGLTFYPYAMAWYRQAPGKERELVATITWSGTTTYYADSVKGRFTISRDNAKNTVYVQMNSLKPEDTAVYYCAADLWEVVTPYVTIDDDYWGQGTQVTVSS”, the “polyreactivity (PSR sort gate)” value is “high polyreactivity”.

As for “QVKLLESVGGLVQAGGSLRLSCMASGSILGDRMSWYRQPPGKEHELVATIYDGGITYYADSMKGRFTISRDNAKNTVYLQMNSLRPEDTAVYYCGASLEGYRYHVYCGQGTQVTVSS”, the “polyreactivity (PSR sort gate)” value is on record as “low polyreactivity”.

(Values after the nanobody polyreactivity screen of Harvey et al. (2022).)
